Positions count from the first letter of the chain named.

Sequences and labels used below:
B1: 369_C08 (antibody, V domains shown)
VH: EVQLLESGGGLVQPGGSLRLSCAASGFTFSDYGMNWVRQAPGKGLEWVSNINYNGGYTGYADSVKGRFTISRDNSKNTLYLQMNSLRAEDTAVYYCARSATWHDTHLDYWGQGTLVTVSS
VL: DIQMTQSPSSLSASVGDRVTITCRASQSILTYLNWYQQKPGKAPKLVIYAATSLASGVPSRFSGSGSGTDFTLTISSLQPEDFATYYCQQSYENPLTFGGGTKVEIK
notes: VH and VL only
B2: 369_F04 (antibody, V domains shown)
VH: B1 VH with D31S, N50G, G59S
VL: B1 VL with L30I, T31S, L33V, V47L, L54R, A55H, E93D
notes: VH and VL only
B3: 374_E04 (antibody, V domains shown)
VH: B1 VH with D31S, G33S, N50G, G55S, T58K, G59S
VL: B1 VL with T31S, V47L, A51V, L54R, E93N
notes: VH and VL only
B4: 373_A07 (antibody, V domains shown)
VH: B1 VH with D31S, G33S
VL: B1 VL with L33V, V47L, L54R, Y92D, E93N, N94L
notes: VH and VL only
B5: 374_G12 (antibody, V domains shown)
VH: B1 VH with S30D, N50S, T58K, G59S
VL: B1 VL with L33V, E93N, N94S
notes: VH and VL only
B6: 373_F02 (antibody, V domains shown)
VH: B1 VH with S30D, D31S, G33S, N50G, G55S, T58K, G59S
VL: B1 VL with V47L, L54R, E93D, N94T
notes: VH and VL only
B7: 371_F12 (antibody, V domains shown)
VH: B1 VH with S30D, D31S, G33S, T58K, G59S
VL: B1 VL with L30I, T31S, V47L, L54R, Y92N, E93N, N94L
notes: VH and VL only
B8: 374_E06 (antibody, V domains shown)
VH: B1 VH with S30D, D31S, G33S, N50S, G55S, T58K
VL: B1 VL with T31S, V47L, L54R, E93D, N94L
notes: VH and VL only
B9: 372_H03 (antibody, V domains shown)
VH: B1 VH with S30D, D31S, T58K, G59S
VL: B1 VL with L30I, L33V, V47L, E93N, N94L
notes: VH and VL only
B10: 373_H12 (antibody, V domains shown)
VH: B1 VH with G33S, N50G, G55S, T58K
VL: B1 VL with V47L, L54R, E93N, N94S
notes: VH and VL only
B11: 374_E03 (antibody, V domains shown)
VH: B1 VH with D31S, G33S, G55S, T58K
VL: B1 VL with L33V, E93D, N94T
notes: VH and VL only
B12: 374_B11 (antibody, V domains shown)
VH: B1 VH with D31S, G33S, N50G, G55S, T58K, G59S
VL: B1 VL with L33V, L54R, E93D, N94L
notes: VH and VL only
B13: 370_A10 (antibody, V domains shown)
VH: B1 VH with G33S, N50S, G55S, T58K
VL: B1 VL with T31S, L33V, V47L, E93D, N94T
notes: VH and VL only
B14: 369_E09 (antibody, V domains shown)
VH: B1 VH with S30D, D31S, G33S, G55S, T58K
VL: B1 VL with T31S, L54R, E93D, N94L
notes: VH and VL only
B15: 374_A08 (antibody, V domains shown)
VH: B1 VH with S30D, D31S, G33S, G55S, G59S
VL: B1 VL with L30V, V47L, E93D, N94L
notes: VH and VL only
B16: 371_B05 (antibody, V domains shown)
VH: B1 VH with D31S, G33S, N50G, G55S, G59S
VL: B1 VL with Y92D, N94T
notes: VH and VL only
B17: 374_D11 (antibody, V domains shown)
VH: B1 VH with S30D, D31S, G55S
VL: B1 VL with V47L, L54R, N94T
notes: VH and VL only
B18: 374_C07 (antibody, V domains shown)
VH: B1 VH with S30D, D31S, G33S, G59S
VL: B1 VL with L30I, T31S, V47L, L54R, Y92D, N94L
notes: VH and VL only
B19: 370_A08 (antibody, V domains shown)
VH: B1 VH with S30D, D31S, G33S, N50S, G55S
VL: B1 VL with L30V, L54R, E93D, N94L
notes: VH and VL only
B20: 371_B10 (antibody, V domains shown)
VH: B1 VH with S30D, D31S, G33S
VL: B1 VL with L30V, T31S, L33V, V47L, L54R, E93D, N94L
notes: VH and VL only
B21: 373_D09 (antibody, V domains shown)
VH: B1 VH with S30D, D31S, G33S, N50G, G55S, G59S
VL: B1 VL with L54R, A55H
notes: VH and VL only
B22: 370_D07 (antibody, V domains shown)
VH: B1 VH with D31S, G55S
VL: B1 VL with T31S, L33V, N94S
notes: VH and VL only
B23: 369_E04 (antibody, V domains shown)
VH: B1 VH with G33S, N50G, G55S, T58K, G59S
VL: B1 VL with T31S, L33V, L54R, E93S, N94L
notes: VH and VL only
B24: 369_G09 (antibody, V domains shown)
VH: B1 VH with S30D, D31S, G33S
VL: B1 VL with L30V, V47L, L54R, E93D, N94L
notes: VH and VL only
B25: 374_G01 (antibody, V domains shown)
VH: B1 VH with S30D, D31S, G33S, G55S, G59S
VL: B1 VL with L33V, V47L, A51T, L54R, A55H, E93N, N94L
notes: VH and VL only
B26: 373_E08 (antibody, V domains shown)
VH: B1 VH with S30D, D31S, N50G, G55S, G59S
VL: B1 VL with L30V, T31S, L33V, V47L, A51V, L54R, N94S
notes: VH and VL only
B27: 374_F09 (antibody, V domains shown)
VH: B1 VH with D31S, N50S, G55S, G59S
VL: B1 VL with L30S, T31S, L33V, V47L, L54R, E93S, N94T
notes: VH and VL only
B28: 369_D06 (antibody, V domains shown)
VH: B1 VH with S30D, D31S, G33S, N50G
VL: B1 VL with V47L, L54R, N94T
notes: VH and VL only
B29: 374_G02 (antibody, V domains shown)
VH: B1 VH with S30D, D31S, G33S, N50G, G55S, G59S
VL: B1 VL with V47L, T52S, A55Q, E93D, N94T
notes: VH and VL only
B30: 373_D02 (antibody, V domains shown)
VH: B1 VH with D31S, G33S, G55S, T58K
VL: B1 VL with T31S, V47L, E93D, N94L
notes: VH and VL only
B31: 369_H11 (antibody, V domains shown)
VH: B1 VH with N50S
VL: B1 VL with T31S, V47L, L54R, A55H, E93D, N94L
notes: VH and VL only
Note: test concentration or dose not given here.

mouse ACVR2A, sequence (P27038 20-135 limits assumed): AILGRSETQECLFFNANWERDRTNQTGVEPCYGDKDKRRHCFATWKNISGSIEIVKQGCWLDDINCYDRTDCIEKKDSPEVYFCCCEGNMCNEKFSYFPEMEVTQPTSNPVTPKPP

One assay concerns the target T1, biotinylated goat anti-human kappa light chain.
T1 construct: Positive control of the ELISA
As to the kind of experiment: ELISA, positive control. In short, it runs like this: (§1)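 mAb binding by ELISA; antigens: hu ACVR2A, mu ACVR2A; pos ctrl biotinylated goat anti-hu kappa LC; neg ctrl hu Fc.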
A general note: An ELISA detects its analyte on a solid surface through an enzyme-linked reagent.
Turning to B1, the optical density amounted to 2.8 OD.

Consider B2, for which the optical density turned out to be 3.46 OD.

Molecule B3 gave an optical density of 3.19 OD.

Turning to B4, the optical density came to 3.11 OD.

With B5, the optical density is 3.15 OD.

For the molecule B6, the optical density is 3.15 OD.

For B7, the optical density is 3.62 OD.

Molecule B8 registered an optical density of 3.25 OD.

Molecule B9 showed an optical density of 3.64 OD.

In the case of B10, the optical density was determined as 3 OD.

B11 had an optical density of 3.13 OD.

In turn, B12 registered an optical density of 3.17 OD.

Molecule B13 returned an optical density of 3.47 OD.

B14 registered an optical density of 3.48 OD.

In turn, B15 displayed an optical density of 2.94 OD.

In turn, B16 returned an optical density of 1.65 OD.

In turn, B17 returned an optical density of 2.9 OD.

In the case of B18, the optical density amounted to 3.22 OD.

Turning to B19, the optical density was 3.52 OD.

Regarding B20, the optical density worked out at 3.44 OD.

Regarding B21, the optical density amounted to 3.04 OD.

For the molecule B22, the optical density was found to be 3.38 OD.

Regarding B23, the optical density worked out at 3.52 OD.

Turning to B24, the optical density stood at 3.6 OD.

The molecule B25 had an optical density of 2.92 OD.

For the molecule B26, the optical density is 3.2 OD.

On to B27, for which the optical density is 3.14 OD.

B28 yielded an optical density of 3.11 OD.

B29 yielded an optical density of 3.17 OD.

As to B30, the optical density amounted to 3.19 OD.

As to B31, the optical density was determined as 2.21 OD.

The next assay deals with mouse ACVR2A (mouse, UniProt P27038 20-135, limits assumed). As to the kind of experiment: ELISA. A digest of the protocol:
as §1
Molecule B1 came in with an optical density of 2.33 OD.

The molecule B2 gave an optical density of 2.17 OD.

B3 gave an optical density of 3.72 OD.

B4 displayed an optical density of 3.59 OD.

B5 gave an optical density of 3.21 OD.

In turn, B6 came in with an optical density of 3.6 OD.

Take B7: the optical density came to 2.3 OD.

In turn, B8 displayed an optical density of 3.75 OD.

On to B9, for which the optical density is 2.7 OD.

For the molecule B10, the optical density turned out to be 2.98 OD.

Molecule B11 displayed an optical density of 3.79 OD.

For B12, the optical density amounted to 3.66 OD.

B13 displayed an optical density of 2.88 OD.

In turn, B14 displayed an optical density of 3.77 OD.

On to B15, for which the optical density is 3.67 OD.

Consider B16, for which the optical density was determined as 1.24 OD.

B17 yielded an optical density of 3.58 OD.

In turn, B18 came in with an optical density of 3.7 OD.

The molecule B19 registered an optical density of 2.33 OD.

As to B20, the optical density was 3.36 OD.

Molecule B21 displayed an optical density of 3.5 OD.

B22 yielded an optical density of 3.14 OD.

Regarding B23, the optical density was found to be 3.3 OD.

As for B24, the optical density was 3.27 OD.

Consider B25, for which the optical density was determined as 3.6 OD.

Take B26: the optical density came to 3.23 OD.

In turn, B27 came in with an optical density of 3.62 OD.

The molecule B28 returned an optical density of 3.35 OD.

Turning to B29, the optical density is 3.54 OD.

As for B30, the optical density is 3.65 OD.

With B31, the optical density turned out to be 1.64 OD.

In another assay the target is T2, human ACVR2A (human, UniProt P27037 20-135, limits assumed).
T2 construct: also called activin receptor, type II A
T2 sequence (P27037 20-135 limits assumed): as the sequence (P27038 20-135 limits assumed) above, with R20K, I73V counted along it
Put plainly: ELISA. In short, it runs like this: as §1
Regarding B1, the optical density worked out at 2.32 OD.

B2 displayed an optical density of 1.95 OD.

With B3, the optical density was determined as 3.74 OD.

For the molecule B4, the optical density came to 3.52 OD.

In the case of B5, the optical density came to 3.19 OD.

As for B6, the optical density was 3.62 OD.

B7 returned an optical density of 2.47 OD.

Take B8: the optical density amounted to 3.84 OD.

B9 registered an optical density of 2.32 OD.

As for B10, the optical density came out at 3.06 OD.

For B11, the optical density was determined as 3.72 OD.

On to B12, for which the optical density came to 3.69 OD.

Take B13: the optical density was 2.58 OD.

In turn, B14 had an optical density of 3.63 OD.

Consider B15, for which the optical density came out at 3.59 OD.

As to B16, the optical density is 1.05 OD.

B17 displayed an optical density of 3.64 OD.

B18: the optical density worked out at 3.65 OD.

B19 returned an optical density of 2.41 OD.

The molecule B20 came in with an optical density of 3.31 OD.

With B21, the optical density turned out to be 3.46 OD.

In the case of B22, the optical density was found to be 2.81 OD.

As to B23, the optical density was determined as 2.88 OD.

In turn, B24 returned an optical density of 3.36 OD.

B25 displayed an optical density of 3.34 OD.

In the case of B26, the optical density stood at 2.97 OD.

On to B27, for which the optical density was 3.53 OD.

B28 registered an optical density of 3.44 OD.

Molecule B29 showed an optical density of 3.52 OD.

For B30, the optical density is 3.73 OD.

Turning to B31, the optical density is 1.45 OD.

The values are drawn from patent publication US20210380703A1 (RIGEL PHARMACEUTICALS, published 2021).
